Data reported in patent US20260167721A1 (ABLEXIS, published 2026).

How the values were obtained:
[1] = target: T1, human CD3 (on human Pan-T cells or donor PBMC) (human, UniProt P07766 23-207; P04234 22-171; P09693 23-182; P20963 22-164); assay: cell-based or functional assay
[2] = target: T1, human CD3 (on human Pan-T cells or …); assay: cell-based or functional assay; remark: listed apart in the source

T1 sequence (P07766 23-207, chain 1 of 4): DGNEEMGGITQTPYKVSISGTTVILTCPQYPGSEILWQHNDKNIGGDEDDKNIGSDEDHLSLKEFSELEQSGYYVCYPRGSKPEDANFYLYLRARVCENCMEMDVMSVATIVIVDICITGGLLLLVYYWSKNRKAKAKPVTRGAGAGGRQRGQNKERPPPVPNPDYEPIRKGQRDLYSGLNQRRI
T1 sequence (P04234 22-171, chain 2 of 4): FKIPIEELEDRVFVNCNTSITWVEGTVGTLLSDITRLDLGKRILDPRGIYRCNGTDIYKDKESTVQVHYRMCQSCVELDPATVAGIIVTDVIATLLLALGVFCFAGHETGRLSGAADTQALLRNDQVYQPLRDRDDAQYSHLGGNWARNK
T1 sequence (P09693 23-182, chain 3 of 4): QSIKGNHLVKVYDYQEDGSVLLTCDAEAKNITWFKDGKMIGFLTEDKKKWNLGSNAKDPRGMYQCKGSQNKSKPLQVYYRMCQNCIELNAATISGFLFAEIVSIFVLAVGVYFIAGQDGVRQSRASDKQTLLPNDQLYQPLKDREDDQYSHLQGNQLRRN
T1 sequence (P20963 22-164, chain 4 of 4): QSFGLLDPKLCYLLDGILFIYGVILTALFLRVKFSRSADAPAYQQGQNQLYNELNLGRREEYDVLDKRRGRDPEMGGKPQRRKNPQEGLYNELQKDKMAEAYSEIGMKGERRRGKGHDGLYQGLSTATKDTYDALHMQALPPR

RTCC Assay, Donor 0, EC50 [1] [nM]	RTCC Assay, Donor 0, gMFI max [1] [gMFI]	RTCC Assay, Donor 1, EC50 [1] [nM]	RTCC Assay, Donor 1, gMFI max [1] [gMFI]	RTCC Assay, Donor 2, EC50 [1] [nM]	RTCC Assay, Donor 2, gMFI max [1] [gMFI]	RTCC Assay, Donor 3, EC50 [1] [nM]	RTCC Assay, Donor 3, gMFI max [1] [gMFI]	Cytokine Release Assay (IFNγ), Donor 0, gMFI max [2] [gMFI]	Cytokine Release Assay (IFNγ), Donor 1, gMFI max [2] [gMFI]	Cytokine Release Assay (IFNγ), Donor 2, gMFI max [2] [gMFI]	Cytokine Release Assay (IFNγ), Donor 3, EC50 [2] [nM]	Cytokine Release Assay (IFNγ), Donor 3, gMFI max [2] [gMFI]	Cytokine Release Assay (IFNγ), Donor 2, EC50 [2] [nM]	Cytokine Release Assay (IFNγ), Donor 0, EC50 [2] [nM]	Binder
5.21	16200	0.762	57800	2.28	37700	7.83	42700	6350	4220	4670	25.4	8060	–	–	CD3 × CD33-BspAb52 (bispecific antibody) chain 1: not shown chain 2: EVQLVQSGAEVKKPGSSVKVSCKASGYTITDSNIHWVRQAPGQSLEWIGYIYPYNGGTDYNQKFKNRATLTVDNPTNTAYMELSSLRSEDTAFYYCVNGNPWLAYWGQGTLVTVSSASTKGPSVFPLAPSSKSTSGGTAALGCLVKDYFPEPVTVSWNSGALTSGVHTFPAVLQSSGLYSLSSVVTVPSSSLGTQTYICNVNHKPSNTKVDKRVEPKSCDKTHTCPPCPAPEFEGGPSVFLFPPKPKDTLMISRTPEVTCVVVDVSHEDPEVKFNWYVDGVEVHNAKTKPREEQYNSTYRVVSVLTVLHQDWLNGKEYKCKVSNKALPASIEKTISKAKGQPREPQVCTLPPSREEMTKNQVSLSCAVKGFYPSDIAVEWESNGQPENNYKTTPPVLDSDGSFFLVSKLTVDKSRWQQGNVFSCSVMHEALHNRFTQKSLSLSPGK chain 3: DIQLTQSPSTLSASVGDRVTITCRASESLDNYGIRFLTWFQQKPGKAPKLLMYAASNQGSGVPSRFSGSGSGTEFTLTISSLQPDDFATYYCQQTKEVPWSFGQGTKVEVKRTVAAPSVFIFPPSDEQLKSGTASVVCLLNNFYPREAKVQWKVDNALQSGNSQESVTEQDSKDSTYSLSSTLTLSKADYEKHKVYACEVTHQGLSSPVTKSFNRGEC
0.086	15600	0.035	79900	0.089	56100	0.159	74000	308000	4350	26900	4.64	198000	8.61	–	CD3 × CD33-BspAb73 (bispecific antibody) chain 1: EVQLVESGGGLVKPGGSLRLSCAASGFTFSSYSMNWVRQAPGKCLEWVSSVNSRGSYIYYADSVKGRFTISRDNAKDSLYLQMNSLRADDTAVYYCARDRRELLLDYWGQGTLVTVSSGGGGSGGGGSGGGGSGGGGSSYELTQPPSVSVSPGQTARITCSGDALPKKYAYWYQQKSGQAPVLVIYEDSKRPSGIPERFSGSSSGTMATLTISGAQVEDEADYYCYSTDSSGNHSWVFGCGTKLTVLDKTHTCPPCPAPEFEGGPSVFLFPPKPKDTLMISRTPEVTCVVVDVSHEDPEVKFNWYVDGVEVHNAKTKPREEQYNSTYRVVSVLTVLHQDWLNGKEYKCKVSNKALPASIEKTISKAKGQPREPQVYTLPPCREEMTKNQVSLWCLVKGFYPSDIAVEWESNGQPENNYKTTPPVLDSDGSFFLYSKLTVDKSRWQQGNVFSCSVMHEALHNHYTQKSLSLSPGK chain 2: EVQLVQSGAEVKKPGSSVKVSCKASGYTITDSNIHWVRQAPGQSLEWIGYIYPYNGGTDYNQKFKNRATLTVDNPTNTAYMELSSLRSEDTAFYYCVNGNPWLAYWGQGTLVTVSSASTKGPSVFPLAPSSKSTSGGTAALGCLVKDYFPEPVTVSWNSGALTSGVHTFPAVLQSSGLYSLSSVVTVPSSSLGTQTYICNVNHKPSNTKVDKRVEPKSCDKTHTCPPCPAPEFEGGPSVFLFPPKPKDTLMISRTPEVTCVVVDVSHEDPEVKFNWYVDGVEVHNAKTKPREEQYNSTYRVVSVLTVLHQDWLNGKEYKCKVSNKALPASIEKTISKAKGQPREPQVCTLPPSREEMTKNQVSLSCAVKGFYPSDIAVEWESNGQPENNYKTTPPVLDSDGSFFLVSKLTVDKSRWQQGNVFSCSVMHEALHNRFTQKSLSLSPGK chain 3: DIQLTQSPSTLSASVGDRVTITCRASESLDNYGIRFLTWFQQKPGKAPKLLMYAASNQGSGVPSRFSGSGSGTEFTLTISSLQPDDFATYYCQQTKEVPWSFGQGTKVEVKRTVAAPSVFIFPPSDEQLKSGTASVVCLLNNFYPREAKVQWKVDNALQSGNSQESVTEQDSKDSTYSLSSTLTLSKADYEKHKVYACEVTHQGLSSPVTKSFNRGEC
2.92	29700	0.937	65800	1.85	53900	2.33	75900	1.25e+06	7650	28300	52.6	379000	22.9	12.9	CD3 × CD33-BspAb66 (bispecific antibody, human IgG1, kappa) scFv: EVQLVESGGGLVQPGRSLRLSCAASGFTFDDYAMHWVRQAPGKGLEWVSGISWNSGSIGYADSVKGRFTISRDNAKNSLYLQMNSLRAEDTALYYCAKDSRGYGDYRLGGAYWGQGTLVTVSSGGGGSGGGGSGGGGSGGGGSEIVMTQSPATLSVSPGERATLSCRASQSVSSNLAWYQQKPGQAPRLLIYGASTRATGIPARFSGSGSGTEFTLTISSLQSEDFAVYYCQQYNNWPWTFGQGTKVEIKTSGPGGPDKTHTCPPCPAPEFEGGPSVFLFPPKPKDTLMISRTPEVTCVVVDVSHEDPEVKFNWYVDGVEVHNAKTKPREEQYNSTYRVVSVLTVLHQDWLNGKEYKCKVSNKALPASIEKTISKAKGQPREPQVYTLPPCREEMTKNQVSLWCLVKGFYPSDIAVEWESNGQPENNYKTTPPVLDSDGSFFLYSKLTVDKSRWQQGNVFSCSVMHEALHNHYTQKSLSLSPGK heavy: EVQLVQSGAEVKKPGSSVKVSCKASGYTITDSNIHWVRQAPGQSLEWIGYIYPYNGGTDYNQKFKNRATLTVDNPTNTAYMELSSLRSEDTAFYYCVNGNPWLAYWGQGTLVTVSSASTKGPSVFPLAPSSKSTSGGTAALGCLVKDYFPEPVTVSWNSGALTSGVHTFPAVLQSSGLYSLSSVVTVPSSSLGTQTYICNVNHKPSNTKVDKRVEPKSCDKTHTCPPCPAPEFEGGPSVFLFPPKPKDTLMISRTPEVTCVVVDVSHEDPEVKFNWYVDGVEVHNAKTKPREEQYNSTYRVVSVLTVLHQDWLNGKEYKCKVSNKALPASIEKTISKAKGQPREPQVCTLPPSREEMTKNQVSLSCAVKGFYPSDIAVEWESNGQPENNYKTTPPVLDSDGSFFLVSKLTVDKSRWQQGNVFSCSVMHEALHNRFTQKSLSLSPGK light: DIQLTQSPSTLSASVGDRVTITCRASESLDNYGIRFLTWFQQKPGKAPKLLMYAASNQGSGVPSRFSGSGSGTEFTLTISSLQPDDFATYYCQQTKEVPWSFGQGTKVEVKRTVAAPSVFIFPPSDEQLKSGTASVVCLLNNFYPREAKVQWKVDNALQSGNSQESVTEQDSKDSTYSLSSTLTLSKADYEKHKVYACEVTHQGLSSPVTKSFNRGEC
